# Source: patent US20210238276A1 (INTEGRAL MOLECULAR, published 2021)
# T1: hsGLUT4 L296A (human, UniProt P14672 1-509)
# T1 sequence: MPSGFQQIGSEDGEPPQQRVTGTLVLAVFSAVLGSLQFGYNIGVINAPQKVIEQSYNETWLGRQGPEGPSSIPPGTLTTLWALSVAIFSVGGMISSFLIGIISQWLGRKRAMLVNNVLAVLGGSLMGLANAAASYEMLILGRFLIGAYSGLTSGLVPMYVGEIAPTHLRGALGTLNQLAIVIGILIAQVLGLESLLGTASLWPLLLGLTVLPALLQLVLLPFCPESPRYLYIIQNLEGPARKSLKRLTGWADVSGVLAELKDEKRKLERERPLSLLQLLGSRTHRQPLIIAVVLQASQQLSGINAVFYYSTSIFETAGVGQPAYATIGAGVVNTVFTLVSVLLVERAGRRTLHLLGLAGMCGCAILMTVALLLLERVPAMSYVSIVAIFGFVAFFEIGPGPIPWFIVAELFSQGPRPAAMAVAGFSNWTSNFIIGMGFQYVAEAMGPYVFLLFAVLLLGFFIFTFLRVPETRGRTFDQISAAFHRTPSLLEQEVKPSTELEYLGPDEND
# T2: hsGLUT4 S310A (human, UniProt P14672 1-509)
# T2 sequence: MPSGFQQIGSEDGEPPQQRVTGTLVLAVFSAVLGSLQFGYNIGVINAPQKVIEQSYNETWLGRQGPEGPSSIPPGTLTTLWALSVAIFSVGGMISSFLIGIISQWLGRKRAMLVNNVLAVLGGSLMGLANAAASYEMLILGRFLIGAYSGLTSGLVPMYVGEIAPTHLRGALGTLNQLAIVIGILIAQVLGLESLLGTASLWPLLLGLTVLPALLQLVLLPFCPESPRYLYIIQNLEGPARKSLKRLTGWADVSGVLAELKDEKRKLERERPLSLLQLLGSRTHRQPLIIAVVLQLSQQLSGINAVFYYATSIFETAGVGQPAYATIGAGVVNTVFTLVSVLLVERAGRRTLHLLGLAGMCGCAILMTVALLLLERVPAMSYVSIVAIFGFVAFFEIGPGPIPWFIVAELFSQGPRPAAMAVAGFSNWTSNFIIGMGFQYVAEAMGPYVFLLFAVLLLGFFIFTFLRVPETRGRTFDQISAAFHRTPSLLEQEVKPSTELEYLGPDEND
# T3: hsGLUT4 P224A (human, UniProt P14672 1-509)
# T3 sequence: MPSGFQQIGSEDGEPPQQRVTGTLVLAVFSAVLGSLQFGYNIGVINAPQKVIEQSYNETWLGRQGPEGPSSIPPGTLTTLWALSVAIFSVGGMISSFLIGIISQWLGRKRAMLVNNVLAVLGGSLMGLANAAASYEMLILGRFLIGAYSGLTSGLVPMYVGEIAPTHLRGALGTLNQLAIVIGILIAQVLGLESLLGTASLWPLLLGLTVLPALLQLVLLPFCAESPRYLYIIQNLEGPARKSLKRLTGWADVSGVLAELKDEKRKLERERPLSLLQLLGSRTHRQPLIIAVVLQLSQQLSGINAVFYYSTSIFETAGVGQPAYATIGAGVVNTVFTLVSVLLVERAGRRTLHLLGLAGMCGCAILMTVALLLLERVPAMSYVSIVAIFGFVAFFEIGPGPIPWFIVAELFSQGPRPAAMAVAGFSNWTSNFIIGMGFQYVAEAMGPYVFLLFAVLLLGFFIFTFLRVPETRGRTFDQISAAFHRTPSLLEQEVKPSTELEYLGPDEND
# T4: hsGLUT4 G414A (human, UniProt P14672 1-509)
# T4 sequence: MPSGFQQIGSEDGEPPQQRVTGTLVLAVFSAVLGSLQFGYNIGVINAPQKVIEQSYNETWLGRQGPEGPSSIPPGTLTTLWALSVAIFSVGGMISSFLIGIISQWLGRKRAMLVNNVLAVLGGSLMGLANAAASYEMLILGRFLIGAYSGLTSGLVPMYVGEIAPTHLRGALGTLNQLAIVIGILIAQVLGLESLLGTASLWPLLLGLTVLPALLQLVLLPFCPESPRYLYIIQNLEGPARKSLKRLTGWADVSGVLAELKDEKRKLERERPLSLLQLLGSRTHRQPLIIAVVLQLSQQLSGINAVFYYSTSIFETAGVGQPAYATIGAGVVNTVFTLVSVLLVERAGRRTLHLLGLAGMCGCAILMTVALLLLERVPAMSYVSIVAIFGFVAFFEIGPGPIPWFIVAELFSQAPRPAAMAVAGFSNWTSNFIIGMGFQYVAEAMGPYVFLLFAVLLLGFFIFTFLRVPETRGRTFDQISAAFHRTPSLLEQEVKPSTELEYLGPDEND
# What was measured:
# Test in all cases: flow cytometry, alanine-scan library in HEK-293T, with cytochalasin B
# hsGLUT4 L296A = target: T1, hsGLUT4 L296A
# How it was run: (§1)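 HEK-293T cells expressing individual GLUT4 alanine mutants were stained 48 h post-transfection with anti-GLUT4 scFv MAbs (2 μg/ml), then biotinylated secondary and streptavidin-PerCP, and read by high-throughput flow cytometry. Where used, cytochalasin B (10 uM final) was given for 30 min before and during primary antibody staining.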
# hsGLUT4 S310A = target: T2, hsGLUT4 S310A
# How it was run: as §1
# hsGLUT4 P224A = target: T3, hsGLUT4 P224A
# How it was run: as §1
# hsGLUT4 G414A = target: T4, hsGLUT4 G414A
# How it was run: as §1
binder,measurement,setting,value
"AB102 (Fc fusion, also called MAb AB102; not shown: Fc fragment of human IgG1, cloned in frame with the scFv) scFv: ALTQPSSVSANLGGTVKITCSGGGSYGYGWYQQKSPGSAPVTVIYSNDQRPSDIPSRFSGSKSGSTATLTITGVRAEDEAIYYCGSTDSDYVGIFGAGTTLTVLGQSSRSSGGGGSSGGGGSAVTLDESGGGLQTPGGTLSLVCKASGFDFSSYATIWVRQAPGKGLEWVAGISGTGTGSSTGYAPAVKGRATISRDNGQSTVRLQLNNLRAEDTGSYFCAKSTGYGDSWIYPDSIDAWGHGTEVIVSS",% of binding to wild type GLUT4,hsGLUT4 L296A,69%
same,% of binding to wild type GLUT4,hsGLUT4 S310A,20%
same,% of binding to wild type GLUT4,hsGLUT4 P224A,29%
same,% of binding to wild type GLUT4,hsGLUT4 G414A,23%
